# Test results published in PMC3251565.
# Molecular target: platelet integrin αIIbβ3 (human (endogenous in platelets)) (UniProt P08514)
substance,measurement,value
Rhodostomin (from UniProt P30403) (natural protein),IC50 (KI in the text) of inhibition of ADP-induced platelet aggregation in human PRP,83.2 nM
